Each sequence was assayed against HLA-B*07:02 (assay: IEDB peptide-MHC binding, purified MHC/competitive/fluorescence; ≥ and ≤ were set here for values at or beyond the usual limits of such assays). Details: source organism: Homo sapiens.

Question: For IATVDSYVI, which IC50 is on record?
Answer: ≥ 219000 nM

Question: STTAICATGL was tested. Which IC50 did it give?
Answer: ≥ 248000 nM

Question: For AARPATSTL, which IC50 is on record?
Answer: 210 nM

Question: For TPQSNRPVM, which IC50 is on record?
Answer: 466 nM

Question: NPNQNKNVAL was tested. Which IC50 did it give?
Answer: 1580 nM

Question: With APAYSRAL as the sequence, how does the IC50 read?
Answer: 215 nM

Question: For RPYSNVSNL, which IC50 is on record?
Answer: 228 nM

Question: Which IC50 does the source give for SPNQARAQAAL here?
Answer: 926 nM

Question: For APKRPPSAF, which IC50 is on record?
Answer: 176 nM

Question: Which IC50 does the source give for GPRTAALGLL here?
Answer: 258 nM

Question: For LPTSHPKIV, which IC50 is on record?
Answer: 3560 nM
